We go through one protein from PMC4771823, “How the oxygen tolerance of a [NiFe]-hydrogenase depends on quaternary structure” (Journal of Biological Inorganic Chemistry, 2016).

The data set deals with the molecule itself. In words: SEC; Superdex 200 HR 10/30, running buffer with 0.02 % Triton X-100, pH 7.0, 50 mM sodium phosphate, 0.10 M NaCl, 4 °C, 0.15 mL/min; column calibrated with protein standards; dimer peak run again after 5 days at 4 °C; fractions analysed by SDS-PAGE; (αβ)2 dimer to (αβ) monomers.

B1: Hydrogenase-1 from E. coli, (αβ) heterodimer of large and small subunit (complex)
chain 1: MSTQYETQGYTINNAGRRLVVDPITRIEGHMRCEVNINDQNVITNAVSCGTMFRGLEIILQGRDPRDAWAFVERICGVCTGVHALASVYAIEDAIGIKVPDNANIIRNIMLATLWCHDHLVHFYQLAGMDWIDVLDALKADPRKTSELAQSLSSWPKSSPGYFFDVQNRLKKFVEGGQLGIFRNGYWGHPQYKLPPEANLMGFAHYLEALDFQREIVKIHAVFGGKNPHPNWIVGGMPCAINIDESGAVGAVNMERLNLVQSIITRTADFINNVMIPDALAIGQFNKPWSEIGTGLSDKCVLSYGAFPDIANDFGEKSLLMPGGAVINGDFNNVLPVDLVDPQQVQEFVDHAWYRYPNDQVGRHPFDGITDPWYNPGDVKGSDTNIQQLNEQERYSWIKAPRWRGNAMEVGPLARTLIAYHKGDAATVESVDRMMSALNLPLSGIQSTLGRILCRAHEAQWAAGKLQYFFDKLMTNLKNGNLATASTEKWEPATWPTECRGVGFTEAPRGALGHWAAIRDGKIDLYQCVVPTTWNASPRDPKGQIGAYEAALMNTKMAIPEQPLEILRTLHSFDPCLACSTH
chain 2: LENKPRIPVVWIHGLECTCCTESFIRSAHPLAKDVILSLISLDYDDTLMAAAGTQAEEVFEDIITQYNGKYILAVEGNPPLGEQGMFCISSGRPFIEKLKRAAAGASAIIAWGTCASWGCVQAARPNPTQATPIDKVITDKPIIKVPGCPPIPDVMSAIITYMVTFDRLPDVDRMGRPLMFYGQRIHDKCYRRAHFDAGEFVQSWDDDAARKGYCLYKMGCKGPTTYNACSSTRWNDGVSFPIQSGHGCLGCAENGFWDRGSFYSRVVDIPQMGTHSTADTVGLTALGVVAAAVGVHAVASAVDQRRRHNQQPTETEHQPGNEDKQA
notes: large (α) subunit of E. coli Hydrogenase-1, holds the [NiFe] active site; printed mass 64.6 kDa; small (β) subunit of E. coli Hydrogenase-1, holds the FeS clusters; printed mass 36.8 kDa; Purified by Ni-NTA, so one subunit should carry a His tag; Cytochrome b subunits are said to be normally lost during homogenisation; Two copies of this heterodimer form the (αβ)2 dimer; also called Hyd-1; Hyd-1 …
With B1, the “stoichiometry N” value stood at 2.
